Measured values: paper PMC12270161

Legend:
[1] = test system: P03420; experiment: SEC; Superdex 200 Increase 10/300 GL, antigens (40 ug) in PBS; percent of total antigen in aggregate, trimer and monomer fractions by area under the curve
[2] = molecular target: RSV F DsCav1 (pre-fusion stabilised comparator with foldon) (respiratory syncytial virus (RSV) | bacteriophage T4) (UniProt P03420); experiment: as above
[3] = as above
[4] = molecular target: hMPV F DsCavEs2 (pre-fusion stabilised comparator with foldon) (human metapneumovirus (hMPV) | bacteriophage T4); experiment: as above
[5] = molecular target: hMPV Fsol (non-stabilised soluble hMPV F, post-fusion control) (human metapneumovirus (hMPV)); experiment: as above

Q: For “RSV F DsCav1 (pre-fusion stabilised comparator with foldon)”, which “percent trimer (SEC, area under curve)” value [1] is on record?
A: RSV DSCav1, 69% trimer

Q: With “RSV F DsCav1 (pre-fusion stabilised comparator with foldon) (from UniProt P03420 26-524)” as the substance, how does the stoichiometry N [2] read?
A: 3

Q: With “hMPV F DsCavEs2 (pre-fusion stabilised comparator with foldon)” as the substance, how does the “percent trimer (SEC, area under curve)” value [3] read?
A: hMPV DSCavEs2, 54% trimer

Q: What about the stoichiometry N [4] of the same substance?
A: 3

Q: With “hMPV Fsol (non-stabilised soluble hMPV F, post-fusion control)” as the substance, how does the “percent trimer (SEC, area under curve)” value [3] read?
A: hMPV Fsol, 25% aggregate, 19% trimer, 56% monomer

Q: With “hMPV Fsol (non-stabilised soluble hMPV F, post-fusion control) (domain or fragment)” as the substance, how does the stoichiometry N [5] read?
A: 3
